Measurements taken from the DeepSol protein solubility set.

Experiment: soluble on expression in E. coli; label from the status in PepcDB or PDB records

Row | Sequence | soluble on expression in E. coli
1 | MSLAEEISQTTAADTAVTEVRTEDSSQTSSQETAVTETTQSEGTASKQLTTPAVADQTTEPTDNEPISSSDGASSPYQVTDTTEPQQTLTPADSEPQAKADVQQAAAPKKEEINPVTNLEDMSHDTNGTWEVREDGIHSNAIGKGDSFLYSQSSGKNFVYATDVTFKQNSGAAALVFRSNNDSNNKNMYAVNVDIGGHKAKFWRWVDNKDIQLIDERDVVPTADNRYTLKVVAVNNWISYYVNDILMASTGDYVLQKADKGQNTVIPEGHFGLLNWNGDMVFQNTKFALLDDTTAPLIDNITVRSDRGNVEKQGQFFSEEPLHIQYVSNDASQVSLDIAKHNPAATVTVEDKTGRVYTDPSHLPVNVGANYFTVKSTVIDSFGRTVTLTYRINVHRRQNDEVYYNELYRDQYHYSVKDGWANDPNGLVYYNGVYHLFHQFYDDTKWGPMHWAHATSTDLIHWKEEPIAFYPDSNGYMFSGCVVVDEHNSSGLFKTAKGGLVAIITANGNGQRMELAYSEDEGKTWQKYDRIVADWSNDPLQNQDFRDPKVFHWNNQWFMVLAGGPLRIYSSNNLKDWKVESTYPDLHTECPDMYPIVANDGVLKWVLSRGGRFYKVGDFKQVDGKWTFIADDAYKDKDQVMNFGKDSYAAMTYYVHDFGTETRPTIPKLTEVNWMNTWEDYCNLVADTVGQDFNGTFNLNLDLGLINENGQYILTQTPVKAYDSLRDVNTALHFKDVTVDANNTLLKDFKGDSYEIVSHFRPDEKTTKVGFNLRVGNGQATKVIYDLQTETLSIDRSQSGTILSAAFAKVNSQHVTKNADGSIDLHIYVDRASVEVFSKNNTVAGANQIFPNPEAVGASIIVEGGKAQADISVYQMKTIWTDKKDTAKPVAMNTTTAKELALQVGQSQDLQVYLAPASVRQDVEWTISDPSLVRTSQKGNVLHLTAVKKGKLTITAISKENPSLSKTFTISITLNNFKTNLKGLQSVTGKWYVDDETLYDSNTSSNDYYMASQKPGFKEYDYDIDLKYQRGLINLFVASGNIDPSQAYSVQFGDSETVRLYRFAGDTIAEANMGKRINDDQYHHIKVTKTKNSIIISVDGQEVMSHNFDQVDSYFNDAYVGLGLWDGAVEFQNFFVTDHATTPKPDSDPTPQPDAPEALAQERELIDPATGVRVILQKGELASIVRVKVSHIETNDAHTPAVLNAKDYDLFNITPIDKNEKVVAITKPATVLLPIDAGKVVDKVVYLPNTDKEENLPFTIVSLTDSNGKKQSYVRFTAEHFSEYGLVYQAENQTNLKSKEKQDNVAISYPLNLEQEVKVSSISRKYAANKTADVNSVQQTEPSVMSSSPKATLPDTGDHKTDLSQLGVLAMIGSFLVEIAGYFKKRKDEGHHHHHH | soluble
2 | MGDNLTDLPGVGPSTAEKLVEAGYIDFMKIATATVGELTDIEGISEKAAAKMIMGARDLCDLGFKSGIDLLKQRSTVWKLSTSSSELDSVLGGGLESQSVTEFAGVFGSGKTQIMHQSCVNLQNPEFLFYDEEAVSKGEVAQPKAVYIDTDGTFRPERIMQMAEHAGIDGQTVLDNTFVARAYNSDMQMLFAEKIEDLIQEGNNIKLVVIDSLTSTFRNEYTGRGKLAERQQKLGRHMATLNKLADLFNCVVLVTNQVSAKPDAFFGMAEQAIGGHIVGHAATFRFFVRKGKGDKRVAKLYDSPHLPDAEAIFRITEKGIQD | soluble
3 | GSMDALNSKEQQEFQKVVEQKQMKDFMRLYSNLVERCFTDCVNDFTTSKLTNKEQTCIMKCSEKFLKHSERVGQRFQEQNAALGQGLGR | soluble
4 | MAEVKGMTVFNTEEVNTKKQPMFFGKPLGVQRYDNFKYPSFENLTKQQLGYFWRPEEVSLQKDRGDYQTLRPEQKHIYTSNLKYQIMLDSVQGRAPGMAFLPYCSLPELEACMEVWSFMEMIHSRSYTYVIKNVYADPSEVFDKILSDDRILSRAASVTESYDDFINEAQGWGQSNLWRDMDKSLDTSLPVLEMKEVKRKLYRAVTNVNILEGIRFYVSFACSFAFGELKVMEGSAKIISLIARDENQHLAITQNILNNWRKGDDPEMVEIMKEEEQWTYQMFEKCVNEEKMWAEYLFKDGSMIGLNDKLLHQYVEWVANRRMRSIGMKPVYDIAAKNNPLPWTEHWISSKGLQVAPQETEVESYIVGGIKQDVKKDTFAGFKL | soluble
5 | MQKLINSVQNYAWGSKTALTELYGIANPQQQPMAELWMGAHPKSSSRITTANGETVSLRDAIEKNKTAMLGEAVANRFGELPFLFKVLCAAQPLSIQVHPNKRNSEIGFAKENAAGIPMDAAERNYKDPNHKPELVFALTPFLAMNAFREFSDIVSLLQPVAGAHSAIAHFLQVPNAERLSQLFASLLNMQGEEKSRALAVLKAALNSQQGEPWQTIRVISEYYPDDSGLFSPLLLNVVKLNPGEAMFLFAETPHAYLQGVALEVMANSDNVLRAGLTPKYIDIPELVANVKFEPKPAGELLTAPVKSGAELDFPIPVDDFAFSLHDLALQETSIGQHSAAILFCVEGEAVLRKDEQRLVLKPGESAFIGADESPVNASGTGRLARVYNKL | not soluble
6 | MGSSHHHHHHSSGRENLYFQGHMKNLLDLSYEELVTEITNLGLERYRADQILDWVFDKKVNNFDEMTNLSKKHRALLKEHFSISFLKLLDKKVSRIDGTTKFLWELEDGNTIESVMLFHPDRITACISTQVGCPVKCIFCATGMSGFVRNLTTGEIVAQILSMEKEEKKKIGNVVYMGMGEPLLNYENTIKSIRILNHKKMGNIGIRRITISTVGIPDRIIQLAEEGLDVKLALSLHAPTNFKRDQLVPLNKKYSIEEILNAVKIYQRKTGNRVTIEYVLIRGINDEISDAKKLAEILRNMKVFVNLIPVNPTVEGLRRPSRERLLTFKRILLENGIEAEIRREKGTDIEAACGQLRLKRIKSRS | soluble
7 | MERQQQQQQQLRNLRDFLLVYNRMTELCFQRCVPSLHHRALDAEEEACLHSCAGKLIHSNHRLMAAYVQLMPALVQRRIADYEAASAVPSVAAEQPGVSPSGS | soluble
8 | MSLANLYLMRSRSDELNTIISTNLLKNYSKIYKNIAIYCPVIYIHRVPVLQGWLEEFNINQTVKSAYGFTFREAMEEFSKDPHNFFNVILEEYEELKRKYDFVLVNSFCEFGILDGFDLSIKLAKNLNTPIAAIINDEDKLIAQKYFDHALDGRNYVLINENFNFEEVQKLKEYDFITPHRFKYELIKQSIKNKKTVVLPESNDERILKAAEILLKSKVVDLILLGDEEKIKQDATRLSLDLSAMQIMNPLNSEYNQKFTSILYEARKSKGMSLEEAKMLVQDKTYFGTLLIHTGKADAMVSGASTTTAETIRPALQLIKTKEGISSVSGIFFMGLEDQVLAFADCAVNPSPTAEQLATSAYVSAMTAKSFGLEPRIALLSYSSGDSGKGESVDLVKEALKIAKEKYPELNIDGPMQFDCAYDPKTAAKKMPNSKIAGHANVYIFPDLNAANICYKAVQRTANALAIGPILQGLKKPVNDLSRGCLVDDIVDTVILSAIQAQEGHHHHHH | soluble
9 | GPNSGTLALLLDEGSKQLPQAIIIGVKKGGTRALLEFLRVHPDVRAVGAEPHFFDRSYDKGLAWYRDLMPRTLDGQITMEKTPSYFVTREAPARISAMSKDTKLIVVVRDPVTRAISDYTQTLSKRPDIPTFESLTFKNRTAGLIDTSWSAIQIGIYAKHLEHWLRHFPIRQMLFVSGERLISDPAGELGRVQDFLGLKRIITDKHFYFNKTKGFPCLKKAEGSSRPHCLGKTKGRTHPEIDREVVRRLREFYRPFNLKFYQMTGHDFGWDG | soluble
10 | VGKMTPDFLGSLSTTLSWKNLSLHIATDMRFGGLVASYSNLYGTQAGWIKSSLKWRDPEHGGLSWTSQYGDSKGISYGDGVIPDGVFKNGTFATLVDGTKMDVSGMSYKQLVAEGKLEPTHAGTYHVNRAAWGQNTIFDTWVHELNYIALREITLSYRFPKSVASKFGAQGLGLSFSARNLGYLYNSLPNHLNPESVRGNTASEFRIRGYEPYTANYMMTINVDF | not soluble
11 | MGSDKIHHHHHHMFAKFVQRHGAARKAADKTIRAQAGALYAALKDPPGPPHAPASAEHREHQEQDAKEQTMYNDSKHGFDVAQTEYEAFMLEPHDWVPNNRKLPVVIYRRALMPASGDLAAAFEILFERNAWPPQWRDGIFDYHHFHATAHEILGVTDGSAQVIVGGPGGRVVTLCAGDALLLPAGTGHCLQSFARHFQVVAGYPEGQQWDIRREALTPDELASMEALPFPSLDPIDGKHGPLVEHWLHAA | not soluble
